Assay results reported in US20260348977 (published 2026).

Experiments:
truncated peptide = molecular target: T1, truncated peptide (human); assay: competition (chemiluminescence ELISA)
T1 chain: LNPDTGLWE

elongated peptide = molecular target: T2, elongated peptide (human); assay: competition (chemiluminescence ELISA)
T2 chain: WSLNPDTGLWE

non-sense peptide = molecular target: T3, non-sense peptide; assay: competition (chemiluminescence ELISA)
T3 chain: DSGPEYADVV

[1] = molecular target: T4, standard/selection peptide SLNPDTGLWE (CILP-M) (human); assay: competition (chemiluminescence ELISA, 20C, pH 7.4)
T4 chain: SLNPDTGLWE

binding result (truncated peptide): no binding | binding result (elongated peptide): no binding | binding result (non-sense peptide): no binding | IC50 [1]: 2 ng/mL
B1: NB326 #76 13B5-1C6-2C4 (antibody, V domains shown)
VH: QVQLQQSGPELVKPGASVRISCKASGYTFTNYYIHWVKQRPGQGLEWIGWISPGIVDTEYNEKFKNKATLTADKSSRTAYMQLSSLTSEDSAVYFCARRSAGSYGDFDYWGQGTTLTVSS
VL: DIVMTQSQKFMSTSVGDRVSVTCKASQNVGTDVVWYQQRPGQSPKALMYSASYRYSGVPDRFTGSGSGTDFTLTISNVQSEDLAEYFCQHYDNYPLTFGAGTKLELK
